Earlier results in article PMC4072394.

Experiments:
Glu169 = experiment: UV-vis; conditions: detergent-solubilised, unphotolysed (ground) state with protonated Schiff base
Asp299 = experiment: UV-vis; conditions: detergent-solubilised, unphotolysed (ground) state with protonated Schiff base

## Channelrhodopsin-1 (CaChR1) (Chlamydomonas augustae)
Glu169
  pKa: near 9
Asp299
  pKa: near 5
